Literature values in US20090145201A1, “METHODS AND APPARATUSES FOR REDUCING EFFECTS OF MOLECULE ADSORPTION WITHIN MICROFLUIDIC CHANNELS” (EKSIGENT TECHNOLOGIES, LLC, priority 2005, published 2009).

Settings: source: Cantor and Schimmel 1980, Biophysical Chemistry Part II

First: Myosin
Second: NCC(=O)O [glycine, reference compound]
The “Diffusion Coefficient” value of the first is lower: 1.10e−7 cm^2 · s^−1 for the first, 9.33e−6 cm^2 · s^−1 for the second.

First: Bovine serum albumin
Second: Fibrinogen
The “Diffusion Coefficient” value of the first is higher: 6.01e−7 cm^2 · s^−1 for the first, 1.98e−7 cm^2 · s^−1 for the second.

Compared with `OC[C@H]1O[C@@](CO)(O[C@H]2O[C@H](CO)[C@@H](O)[C@H](O)[C@H]2O)[C@@H](O)[C@@H]1O` [sucrose, reference compound], lysozyme is lower in “Diffusion Coefficient” value: 4.59e−6 cm^2 · s^−1 for the first, 1.04e−6 cm^2 · s^−1 for the second.

In the case of Tropomyosin, the “Diffusion Coefficient” value is listed as 2.2e−7 cm^2 · s^−1.

For `[Cl-].[Na+]` [NaCl, reference compound], the “Diffusion Coefficient” value is listed as ~1.5e−5 cm^2 · s^−1.
